In general, stoichiometry N refers to the number of molecules, sites or subunits per partner or assembly.

The results in this text go back to article PMC9554411.

The target of this assay is MERS-CoV spike glycoprotein ectodomain (EMC strain, spike residues 1-1290), trimer (MERS-CoV (EMC strain)) (UniProt K0BRG7). Briefly: cryo-EM structure.

In turn, “MERS-CoV spike glycoprotein ectodomain (EMC strain, spike residues 1-1290), trimer (from UniProt K0BRG7 18-1290) (domain or fragment)” registered a stoichiometry N of 3.
